According to US7090834B1, “Vascular endothelial cell growth factor variants and uses thereof” (Genentech, Inc., priority 1999, dated 2006):
Where a chain is given by its changes, count along the chain named.

B1: native VEGF (8-109) (ligand, human, UniProt P15692 214-315, looked up)
chain: GQNHHEVVKFMDVYQRSYCHPIETLVDIFQEYPDEIEYIFKPSCVPLMRCGGCCNDEGLECVPTEESNITMQIMRIKPHQGQHIGEMSFLQHNKCECRPKKD
notes: Homodimer
B2: LK-VRB-3s (ligand, human, UniProt P15692-4 27-135, looked up)
chain: APMAEGGGQNHHEVVKIEDVFKRSSCHPIETLVDIFQEYPDEIEYIFKPSCVPLMRCGGCCNDEGLECVPTEESNITMQIMRIKPHQGQHIGEMSFLQHNKCECRPKKD
B3: LK-VRB-2f (ligand, human, UniProt P15692-4 27-191, looked up)
chain: APMAEGGGQNHHEVVKFMDVYQRSYCHPIETLVDIFQEYPDEIEYIFKPSCVPLMRCGGCCNSEMRECVPTEESNITMQIMRIKPHQGQHIGEMSFLQHNKCECRPKKDRARQENPCGPCSERRKHLFVQDPQTCKCSCKNTDSRCKARQLELNERTCRCDKPRR
B4: LK-VRB-8s* (ligand)
chain: B2 chain with I17F, E18M, F21L, K22Q, S25Y, D63S, G65M, L66R
B5: LK-VRB-2s* (ligand, human, UniProt P15692-4 27-135, looked up)
chain: B2 chain with I17F, E18M, F21Y, K22Q, S25Y, D63S, G65M, L66R
B6: LK-VRB-7s* (ligand, human, UniProt P15692-4 27-135, looked up)
chain: B2 chain with I17F, F21Y, K22Q, S25Y, D63S, G65M, L66R
B7: LK-VRB-26s (ligand, human, UniProt P15692-4 27-135, looked up)
chain: B2 chain with I17F, F21L, K22R, G65M, L66R
B8: LK-VRB-21s (ligand, human, UniProt P15692-4 27-135, looked up)
chain: B2 chain with I17F, F21L, K22R, D63S
B9: LK-VRB-23s (ligand, human, UniProt P15692-4 27-135, looked up)
chain: B2 chain with I17F, F21L, K22R, L66R
B10: LK-VRB-22s (ligand, human, UniProt P15692-4 27-135, looked up)
chain: B2 chain with I17F, F21L, K22R, G65M
B11: LK-VRB-25s (ligand, human, UniProt P15692-4 27-135, looked up)
chain: B2 chain with I17F, F21L, K22R, D63S, L66R
B12: LK-VRB-9s (ligand, human, UniProt P15692-4 27-135, looked up)
chain: B2 chain with I17F, E18M, F21Y, K22R, S25Y, D63S, G65M, L66R
B13: LK-VRB-15s (ligand, human, UniProt P15692-4 27-135, looked up)
chain: B2 chain with I17F, E18M, F21L, K22Q, D63S, G65M, L66R
B14: LK-VRB-24s (ligand, human, UniProt P15692-4 27-135, looked up)
chain: B2 chain with I17F, F21L, K22R, D63S, G65M
B15: LK-VRB-20s (ligand, human, UniProt P15692-4 27-135, looked up)
chain: B2 chain with I17F, E18M, F21L, K22R, D63S, G65M, L66R
B16: LK-VRB-16s (ligand, human, UniProt P15692-4 27-135, looked up)
chain: B2 chain with I17F, E18M, F21Y, K22R, D63S, G65M, L66R

Each molecule was assayed against gD-KDR receptor on CHO cells (UniProt P35968 20-1356) (assay: cell-based or functional assay). Conditions: not given.

| Molecule | Phosphorylation-Inducing Activity (KIRA assay) |
| --- | --- |
| B1 | 2 nM |
| B2 | 1 ratio to native VEGF (8-109) |

These molecules were tested against KDR receptor on HUVEC cells (human, UniProt P35968 20-1356) (assay: cell-based or functional assay). Conditions: not given.
KDR receptor on HUVEC cells, sequence (P35968 20-1356): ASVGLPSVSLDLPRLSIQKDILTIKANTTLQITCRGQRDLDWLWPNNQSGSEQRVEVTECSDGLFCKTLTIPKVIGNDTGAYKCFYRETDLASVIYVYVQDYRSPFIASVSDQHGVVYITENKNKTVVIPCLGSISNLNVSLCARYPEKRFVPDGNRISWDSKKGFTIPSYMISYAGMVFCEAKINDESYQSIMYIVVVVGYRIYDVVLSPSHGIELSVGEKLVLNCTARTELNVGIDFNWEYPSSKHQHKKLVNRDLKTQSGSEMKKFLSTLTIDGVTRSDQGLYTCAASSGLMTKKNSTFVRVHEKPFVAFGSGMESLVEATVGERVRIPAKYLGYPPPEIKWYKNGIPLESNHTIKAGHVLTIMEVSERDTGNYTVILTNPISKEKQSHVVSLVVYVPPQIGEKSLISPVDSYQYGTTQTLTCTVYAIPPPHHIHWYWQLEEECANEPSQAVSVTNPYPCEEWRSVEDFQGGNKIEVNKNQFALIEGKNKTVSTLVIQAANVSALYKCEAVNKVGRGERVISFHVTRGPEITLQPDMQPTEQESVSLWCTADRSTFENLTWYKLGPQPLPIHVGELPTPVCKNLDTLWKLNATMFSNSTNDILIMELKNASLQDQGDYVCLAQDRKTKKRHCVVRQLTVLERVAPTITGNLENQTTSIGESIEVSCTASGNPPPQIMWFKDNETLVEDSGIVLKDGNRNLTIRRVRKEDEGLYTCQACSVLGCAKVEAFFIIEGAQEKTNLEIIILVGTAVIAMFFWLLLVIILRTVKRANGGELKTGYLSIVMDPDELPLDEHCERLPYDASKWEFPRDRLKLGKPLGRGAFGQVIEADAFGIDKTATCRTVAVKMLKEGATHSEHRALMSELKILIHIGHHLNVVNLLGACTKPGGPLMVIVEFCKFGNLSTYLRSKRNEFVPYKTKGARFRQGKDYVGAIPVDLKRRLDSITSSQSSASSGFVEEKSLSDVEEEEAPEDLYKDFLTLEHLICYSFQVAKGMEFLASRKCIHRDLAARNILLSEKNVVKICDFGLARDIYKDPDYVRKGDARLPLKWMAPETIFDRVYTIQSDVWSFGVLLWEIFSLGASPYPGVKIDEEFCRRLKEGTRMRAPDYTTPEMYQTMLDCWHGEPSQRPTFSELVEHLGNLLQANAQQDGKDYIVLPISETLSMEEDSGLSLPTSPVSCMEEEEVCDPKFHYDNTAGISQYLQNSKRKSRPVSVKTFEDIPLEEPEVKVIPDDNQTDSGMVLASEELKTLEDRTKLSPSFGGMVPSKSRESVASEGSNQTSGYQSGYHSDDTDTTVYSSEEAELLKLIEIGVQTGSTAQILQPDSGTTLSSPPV

| Molecule | Endothelial Cell Proliferation Activity (HUVEC, 3H-thymidine) | Endothelial Cell Proliferation Activity (HUVEC, 3H-thymidine) (ratio to native VEGF (8-109)) |
| --- | --- | --- |
| B1 | 0.5 nM | – |
| B3 | 0.1 ratio to native VEGF (8-109) | – |
| B4 | 0.5 nM | 1 |
| B5 | 0.1 ratio to native VEGF (8-109) | – |
| B6 | 1 ratio to native VEGF (8-109) | – |

What follows are molecules tested against KDR receptor (Homo sapiens, UniProt P35968) (assay: KDR receptor binding ELISA (inhibition of biotinylated native VEGF (8–109) binding)). Conditions: second figure of the cell, variant midpoint concentration divided by that of native VEGF.
Method: (§1) Receptor binding assays were performed in 96-well immunoplates (Maxisorp, Nunc-Immunoplate, Nalge Nunc International, Rochester, N.Y.). Each well was coated with 100 μl of a solution containing 8 μg/ml of a monoclonal antibody to KDR known as MAKD5 (Genentech, South San Francisco, Calif.) in 50 mM carbonate buffer at pH 9.6 and incubated at 4° C. overnight. The supernatant was discarded, the wells were washed three times in washing buffer (0.05% Tween 20 in PBS), and the plate was blocked (150 μl per well) with block buffer (0.5% BSA, 0.01% thimerosal in PBS) at room temperature for one hour. The supernatant was discarded, and the wells were washed.
Aliquots of this mixture (100 μl) were added to the precoated microtiter wells and the plate was incubated for 1 hour at room temperature. […] The wells were then incubated with 3, 3′, 5,5′-tetramethyl benzidine (0.2 gram/liter; Kirkegaard & Perry Laboratories, Gaithersburg, Md.) for about 10 minutes at room temperature. Absorbance was read at 450 nm on a Vmax plate reader (Molecular Devices, Menlo Park, Calif.).
(§2) Titration curves were fit with a four-parameter nonlinear regression curve-fitting program (KaleidaGraph, Synergy Software, Reading, Pa.).

KDR receptor, sequence (P35968 20-327 limits assumed): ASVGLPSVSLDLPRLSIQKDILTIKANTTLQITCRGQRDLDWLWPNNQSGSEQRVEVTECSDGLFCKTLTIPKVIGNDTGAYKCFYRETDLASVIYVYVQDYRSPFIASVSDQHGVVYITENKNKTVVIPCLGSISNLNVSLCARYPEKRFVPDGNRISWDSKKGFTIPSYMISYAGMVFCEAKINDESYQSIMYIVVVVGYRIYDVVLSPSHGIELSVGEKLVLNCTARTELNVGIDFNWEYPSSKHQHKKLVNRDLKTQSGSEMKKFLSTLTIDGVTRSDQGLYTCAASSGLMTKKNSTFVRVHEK

| Molecule | Relative Binding Affinity, KDR Receptor: ratio to native VEGF (8–109) |
| --- | --- |
| B4 | 0.5 nM/0.5 |
| B7 | 23 nM/23 |
| B8 | 3 nM/3 |
| B9 | 11 nM/11 |
| B10 | 4 nM/4 |
| B11 | 4 nM/4 |
| B12 | 0.5 nM/0.5 |
| B13 | 2 nM/2 |
| B6 | 1 nM/1 |
| B14 | 10 nM/10 |
| B15 | 2 nM/2 |
| B16 | 0.6 nM/0.6 |

These molecules were tested against Flt-1 receptor (assay: Flt-1 receptor binding ELISA (inhibition of biotinylated native VEGF binding to Flt-IgG)). Conditions: first figure of the cell, Flt-IgG.
Method: (§3) Receptor binding assays were performed in 96-well immunoplates (Maxisorp, Nunc-Immunoplate, Nalge Nunc International, Rochester, N.Y.). Each well was coated with 100 μl of a solution containing 2 μg/ml of rabbit F(ab′)2 to human IgG Fc (Jackson ImmunoResearch, West Grove, Pa.) in 50 mM carbonate buffer at pH 9.6 and incubated at 4° C. overnight. The supernatant was then discarded, the wells were washed three times in washing buffer (0.05% Tween 20 in PBS), and the plate was blocked (150 μl per well) with block buffer (0.5% BSA, 0.01% thimerosal in PBS) at room temperature for one hour. The supernatant was discarded, and the wells were washed.
(§4) The wells were filled with 100 μl of a solution containing Flt-IgG (a chimeric Flt-human Fc molecule) at 50 ng/ml in assay buffer (0.5% BSA, 0.05% Tween 20 in PBS). The wells were incubated at room temperature for 1 hour and then washed three times in wash buffer (0.05% Tween 20 in PBS).
Aliquots of the mixture (100 μl) were added to the precoated microtiter wells and the plate was incubated for 2 hours at room temperature. […] The wells were then incubated with 3, 3′, 5,5′-tetramethyl benzidine (0.2 g/liter, Kirkegaard & Perry Laboratories, Gaithersburg, Md.) for about 10 minutes at room temperature. Absorbance was read at 450 nm on a Vmax plate reader (Molecular Devices, Menlo Park, Calif.).
Target sequence in this assay (P17948 27-327 limits assumed): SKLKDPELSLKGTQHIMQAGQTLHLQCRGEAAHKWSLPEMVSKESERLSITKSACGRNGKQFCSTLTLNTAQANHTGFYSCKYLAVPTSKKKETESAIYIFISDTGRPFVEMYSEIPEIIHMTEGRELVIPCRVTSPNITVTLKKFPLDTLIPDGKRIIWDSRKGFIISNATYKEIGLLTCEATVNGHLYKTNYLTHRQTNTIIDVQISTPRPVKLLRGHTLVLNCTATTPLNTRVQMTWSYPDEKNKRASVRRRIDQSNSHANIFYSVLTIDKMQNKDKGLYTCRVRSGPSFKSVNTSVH
as §2

| Molecule | Relative Binding Affinity, FLT-1 Receptor: concentration at midpoint absorbance |
| --- | --- |
| B4 | beyond the sensitivity of the ELISA assay |
| B6 | beyond the sensitivity of the ELISA assay |

Same assay, conditions: second figure of the cell, fold less binding than native VEGF

| Molecule | Relative Binding Affinity, FLT-1 Receptor: ratio to native VEGF (8–109) |
| --- | --- |
| B4 | />21000 |
| B7 | />25000 |
| B8 | />5600 |
| B9 | />8500 |
| B10 | />30 |
| B11 | />12000 |
| B12 | /300 |
| B13 | />21000 |
| B6 | />15000 |
| B14 | />18000 |
| B15 | />10000 |
| B16 | />1400 |

The molecules below were run against Flt-1 receptor (assay: RIA assay, binding to FLT-1 receptor). Conditions: Example 8, FIG. 8B; read-out: affinity for Flt-1 (RIA).
Method: Various assays were conducted to examine the properties and biological activities of the I43A/I46A/Q79A/I83A Flt-sel variant. For example, quantitative binding measurements were carried out using a soluble radio-immuno receptor-binding assay (RIA), as described in Example 6 above.
Target sequence in this assay (P17948 27-331 limits assumed): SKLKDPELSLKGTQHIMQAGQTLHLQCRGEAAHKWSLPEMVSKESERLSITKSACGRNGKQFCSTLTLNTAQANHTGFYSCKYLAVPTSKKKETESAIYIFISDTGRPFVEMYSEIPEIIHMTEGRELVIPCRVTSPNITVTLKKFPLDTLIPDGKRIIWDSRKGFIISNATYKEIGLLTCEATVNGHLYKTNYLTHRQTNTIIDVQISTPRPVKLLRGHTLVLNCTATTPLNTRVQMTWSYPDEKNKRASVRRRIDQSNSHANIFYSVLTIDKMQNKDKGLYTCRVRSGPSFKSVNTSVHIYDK

| Molecule | Kd |
| --- | --- |
| Native VEGF (8–109): truncated native VEGF comprising amino acids 8 to 109 of the 165-amino acid vascular endothelial cell growth factor [reference compound] | 0.4 nM |

These molecules were tested against T1, Flt-IgG (UniProt P17948 27-758, limits assumed) (assay: competition ELISA vs biotinylated native VEGF for Flt-IgG). Conditions: not given.
T1 construct: also called chimeric Flt-human Fc molecule; not shown: human IgG Fc
Method: as §3, with “F(ab')2” for “F(ab′)2”
as §4
Aliquots of the mixture (100 μl) were added to the precoated microtiter wells and the plate was incubated for 2 hours at room temperature. […] The wells were then incubated with 3, 3', 5,5'-tetramethyl benzidine (0.2 g/liter, Kirkegaard & Perry Laboratories, Gaithersburg, Md.) for about 10 minutes at room temperature. Absorbance was read at 450 nm on a Vmax plate reader (Molecular Devices, Menlo Park, Calif.).

T1 sequence (P17948 27-758 limits assumed): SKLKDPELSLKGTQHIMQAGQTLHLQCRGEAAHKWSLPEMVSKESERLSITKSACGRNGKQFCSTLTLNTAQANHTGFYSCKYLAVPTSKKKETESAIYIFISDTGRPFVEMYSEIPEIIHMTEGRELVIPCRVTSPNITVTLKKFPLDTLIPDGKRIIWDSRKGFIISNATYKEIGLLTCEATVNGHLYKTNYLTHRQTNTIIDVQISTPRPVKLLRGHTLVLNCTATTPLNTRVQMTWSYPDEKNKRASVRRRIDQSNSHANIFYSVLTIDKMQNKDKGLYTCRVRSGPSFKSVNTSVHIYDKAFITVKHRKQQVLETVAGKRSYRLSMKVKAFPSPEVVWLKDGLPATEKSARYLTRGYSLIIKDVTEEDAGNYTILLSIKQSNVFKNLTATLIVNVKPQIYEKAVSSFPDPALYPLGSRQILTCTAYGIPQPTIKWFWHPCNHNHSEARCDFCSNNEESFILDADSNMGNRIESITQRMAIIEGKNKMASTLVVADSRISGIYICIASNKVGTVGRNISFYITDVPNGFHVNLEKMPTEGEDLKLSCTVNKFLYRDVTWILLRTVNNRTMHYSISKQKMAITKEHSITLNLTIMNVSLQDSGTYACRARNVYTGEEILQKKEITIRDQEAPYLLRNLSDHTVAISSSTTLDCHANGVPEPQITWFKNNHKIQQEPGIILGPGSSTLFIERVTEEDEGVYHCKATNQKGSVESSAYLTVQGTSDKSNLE

| Molecule | IC50 | relative binding affinity (ratio to native VEGF (8-109)) |
| --- | --- | --- |
| B1 | 0.42 nM | – |
| B4 | – | > 21000 ratio |
| B12 | – | 300 ratio |
| B6 | – | > 15000 ratio |
| B2 | – | 400 ratio |

What follows are molecules tested against T2, KDR (1-3) (UniProt P35968 20-327, limits assumed) (assay: competition ELISA vs biotinylated native VEGF (8-109) for KDR (1-3)). Conditions: not given.
T2 construct: domain: domains 1 to 3; Genentech reagent; also called KDR (1-3) monomer; domains 1 to 3 of KDR
Method: as §1
Aliquots of this mixture (100 μl) were added to the precoated microtiter wells and the plate was incubated for 1 hour at room temperature. […] The wells were then incubated with 3, 3', 5,5'-tetramethyl benzidine (0.2 gram/liter; Kirkegaard & Perry Laboratories, Gaithersburg, Md.) for about 10 minutes at room temperature. Absorbance was read at 450 nm on a Vmax plate reader (Molecular Devices, Menlo Park, Calif.).
as §2

T2 sequence (P35968 20-327 limits assumed): as the sequence (P35968 20-327 limits assumed) above

| Molecule | relative binding affinity (ratio to native VEGF (8-109)) |
| --- | --- |
| B4 | 0.5 ratio |
| B7 | 23 ratio |
| B8 | 3 ratio |
| B9 | 11 ratio |
| B10 | 4 ratio |
| B11 | 4 ratio |
| B12 | 0.5 ratio |
| B13 | 2 ratio |
| B6 | 1 ratio |
| B14 | 10 ratio |
| B2 | 1 ratio |
| B15 | 2 ratio |
| B16 | 0.6 ratio |
